# Experimental data reported in PMC3376133, “Glutamine versus Ammonia Utilization in the NAD Synthetase Family” (PLoS ONE, 2012).
# T1: tt_NADS S-subunit (Thermus thermophilus, UniProt Q72HE9)
# T1 construct: gene TT_C1538; S-subunit expressed alone in E. coli BL21/DE3, N-terminal His6-tag
# T1 sequence (Q72HE9 1-281): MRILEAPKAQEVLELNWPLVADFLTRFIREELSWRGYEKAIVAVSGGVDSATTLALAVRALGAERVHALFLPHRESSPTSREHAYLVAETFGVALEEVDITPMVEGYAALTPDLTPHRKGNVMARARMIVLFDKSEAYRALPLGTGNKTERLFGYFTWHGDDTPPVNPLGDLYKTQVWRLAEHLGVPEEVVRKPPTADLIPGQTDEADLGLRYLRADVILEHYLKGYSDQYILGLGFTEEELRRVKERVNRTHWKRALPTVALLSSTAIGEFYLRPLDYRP
# Columns and labels:
# tt_NADS S-subunit = target: T1, tt_NADS S-subunit; assay: coupled alcohol dehydrogenase assay, NADH at […] nm; assay type: biochemical; settings: ammonia as amide donor, ATP; constants possibly in Figure 3C
# [1] = substrate: Nc1ncnc2c1ncn2[C@@H]1O[C@H](COP(=O)(O)OP(=O)([O-])OC[C@H]2O[C@@H]([n+]3cccc(C(=O)O)c3)[C@H](O)[C@@H]2O)[C@@H](O)[C@H]1O; assay: steady-state kinetics of NAD synthetase activity; assay type: biochemical, Methanocaldococcus jannaschii; settings: ammonia 4 mM, saturating ATP (2 mM), 10 mM MgCl2, pH 7.5
Molecule,"coupled alcohol dehydrogenase assay, NADH at 340 nm (tt_NADS S-subunit)",Km [1] [µM],kcat [1] [s⁻¹]
Nc1ncnc2c1ncn2[C@@H]1O[C@H](COP(=O)(O)OP(=O)([O-])OC[C@H]2O[C@@H]([n+]3cccc(C(=O)O)c3)[C@H](O)[C@@H]2O)[C@@H](O)[C@H]1O [NaAD],the S-subunit alone ... had a comparable NADS activity only with ammonia,,
"mj_NADS (Methanocaldococcus jannaschii DSM 2661) (protein, full-length single-domain NADS, N-terminal His6-tag, pET-derived vector, E. coli BL21/DE3) MLWGESMEEIVNKITKFIREKVEEANANGVVVGLSGGIDSSVTAYLCVKALGKDKVLGLIMPEKNTNPKDVEHAKMVAENLGIKYIISDITDILKAFGAGGYVPTREFDKIADGNLKARIRMCILYYFANKYNLLVAGTSNKSEIYVGYGTKHGDIACDIRPIGNLFKTEVKKLAKYIGVPKEIIEKPPSAGLWEGQTDEEELDIKYETLDTILKLYEKGKTPEEIHKETNIPLETINYVFDLIKKNEHKRTLPPTPEI",,130 ± 20,0.20 ± 0.01
